Reference: article PMC6394990, “Detailed characterization of the solution kinetics and thermodynamics of biotin, biocytin and HABA binding to avidin and streptavidin” (PLoS ONE, 2019)
“And” between values parts separate entries of the source, which are not always exact repeats. Identical values can stand only once. Like-named read-outs stand apart in the source and are kept apart here.

Assays:
avidin (AV) [1] = target: T1, avidin (AV) (Gallus gallus, UniProt P02701); conditions: cited from earlier work; for Off rate constants, rate / Off rate constants, ln k: AV; for Off rate constants, rate: in s^-1 (unit assumed); for Off rate constants, ln k: the values are: ln koff
T1 construct: purchased Calbiochem (La Jolla, CA)

avidin (AV) [2] = target: T1, avidin (AV); assay: Literature calorimetry reaction thermodynamics; type: binding; conditions: line without author below the literature lines (average)
avidin (AV) [3] = target: T1, avidin (AV); conditions: cited from earlier work
avidin (AV) [4] = target: T1, avidin (AV); assay: Stopped-flow association kinetics of dye-labeled biotin probes binding to avidin (F(t), rF(t); Arrhenius plots/global fitting); design: ln(k) / dS+ / dG+ / Eon for BFl / b of the line y = m1x+b1: unit not given here; conditions: forward step from Initial 0, probe not given
Procedure: These reactions were carried out in a buffered solution of 10 mM Tris-HCl, 100 mM KCl, 2.5 mM MgCl2 and 1 mM CaCl2 at pH 8 and only AV-BcO reactions included pH 9 and 10. The concentrations, after mixing, were of 20 nM of dye-labeled B7 probe and 260 nM, 520 nM or 1040 nM of AV; and 200 nM, 300 nM, 400 nM or 800 nM of SAV at temperatures of 10, 15, 20 and 25°C. The deglycosylation of AV (for comparative association reactions) was carried out using the provided standard protocol with endoglycosidase H [47], both with and without incubation of a denaturant solution (2% SDS and 1M 2-mercaptoethanol).
The reactions were collected with the SF instrument, described previously. The fluorescence signal was collected through a 520 nm interference filter (Oriel Corp., Stratford, CT) with a detector time constant and SF dead time of 1 μs and 1 ms, respectively. The excitation light was provided by the Coherent Ar^+ ion laser (described above) at 488 nm with […] of incident power on the reaction cuvette. The laser source was followed by the photo-elastic modulator described above with the axis oriented 45^o with respect to the electric vector of the incident light and with the half-wave modulation (50 kHz) set for 488 nm excitation. The demodulation circuitry following the photomultiplier provided a DC(t) and a rectified AC(t) which were converted to digital data by a high-speed digitizer (PCI-5122) from National Instruments (Austin, TX) with 14-bit resolution and 100 MHz bandwidth, through channels 0 and 1. The data acquisition was controlled by LabVIEW (Vr 8) software at a collection rate of 6120 data points/second and stored in spreadsheets. The AC(t) and DC(t) data were baseline corrected before obtaining the signal ratio (Eq 4) as a function of time (ρt).
(§1) The constant AGain is the instrumental amplitude gain and was evaluated by solving ρ(t) using the known steady state anisotropy (rss) of the complexes which is equivalent to the r(t) at t = ∞; and H, obtained from the equivalent grating factor (G) for the filters and photo multiplier tubes in the SF. For the probes used in here G was 0.82 and H = (1-G)/(1+G) = 0.099. Knowing Again and H, the AC(t) and DC(t) signals can be solved for r(t) and F(t) (Eqs 4 and 5) and the normalized fluorescence, F¯(t) , and corrected fluorescence anisotropy, rF¯(t), were obtained when F¯(0) and rF¯(0) were scaled to 1 at t = 0.
(§2) The F¯(t) (Eq 6) is equivalent to (I||) + 2 (I⊥) and proportional to quantum yield (QYi), molar absorptivity (εi) and to the formation or disappearance of the emitting species Xi(t); and rF¯(t) including the steady state anisotropies (rss) of each fluorescent species (Eq 7).
(§3) The possible reaction models were discriminated by the squared residuals of the observed and calculated association traces of both fluorescence and anisotropy fluorescence signals, F¯(t) and rF¯(t) , respectively.

avidin (AV) [5] = target: T1, avidin (AV); assay: Literature kinetics, affinity and dissociation (backward) activation parameters; type: binding
[6] = design: method as in PMID 10796986; conditions: cited from earlier work
streptavidin (SAV) [7] = target: T2, streptavidin (SAV) (Streptomyces avidinii, UniProt P22629); conditions: cited from earlier work; for Off rate constants, rate / Ea from off rate constants: SAV; for Off rate constants, rate: ligand not given, ref klumb paper; for ln(frac bound): rate off SAV
T2 construct: purchased Sigma Aldrich (St. Louis, MO)

streptavidin (SAV) [8] = target: T2, streptavidin (SAV); conditions: cited from earlier work
streptavidin (SAV) [9] = target: T2, streptavidin (SAV); assay: Literature kinetics, affinity and dissociation (backward) activation parameters; type: binding
streptavidin (SAV) [10] = target: T2, streptavidin (SAV); assay: Literature calorimetry reaction thermodynamics; type: binding
streptavidin (SAV) [11] = target: T2, streptavidin (SAV); assay: Stopped-flow association kinetics of dye-labeled biotin probes binding to streptavidin (F(t), rF(t); Arrhenius plots/global fitting); conditions: forward step from Initial 0, probe not given
Procedure: These reactions were carried out in a buffered solution of 10 mM Tris-HCl, 100 mM KCl, 2.5 mM MgCl2 and 1 mM CaCl2 at pH 8 and only AV-BcO reactions included pH 9 and 10. […] The deglycosylation of AV (for comparative association reactions) was carried out using the provided standard protocol with endoglycosidase H [47], both with and without incubation of a denaturant solution (2% SDS and 1M 2-mercaptoethanol).
The reactions were collected with the SF instrument, described previously. […] The AC(t) and DC(t) data were baseline corrected before obtaining the signal ratio (Eq 4) as a function of time (ρt).
as §1, §2, §3

[12] = free biotin, 43 C, read from a literature plot
[13] = free biotin, 55 C, read from a literature plot
[14] = free biotin, 66 C, read from a literature plot
[15] = Enthalpy block, literature value, ref not given
[16] = Gibbs block, literature value, ref not given
[17] = entropy block, literature value, ref not given
[18] = ligand not given (biotin binding), first Green line, ref Green
[19] = ligand not given (biotin binding), ref Suurkuusk
[20] = ligand not given (biotin binding), second Green line, ref Green
[21] = line without author below the literature lines
[22] = Enthalpy block, from literature off rates, ref not given
[23] = ligand not given (biotin binding), ref Helppolainen
[24] = ligand not given (biotin binding), ref Hyre
[25] = ligand not given (biotin binding), ref Klumb
[26] = ligand not given (biotin binding), ref Weber
[27] = ligand not given (biotin binding), ref Green
[28] = line without author below the literature lines (average)

T2 sequence (P22629 25-183): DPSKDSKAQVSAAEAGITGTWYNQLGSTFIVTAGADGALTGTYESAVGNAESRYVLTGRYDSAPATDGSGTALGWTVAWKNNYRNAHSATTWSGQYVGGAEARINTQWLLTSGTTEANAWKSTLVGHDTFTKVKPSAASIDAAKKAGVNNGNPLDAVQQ
T1 sequence (P02701 25-152): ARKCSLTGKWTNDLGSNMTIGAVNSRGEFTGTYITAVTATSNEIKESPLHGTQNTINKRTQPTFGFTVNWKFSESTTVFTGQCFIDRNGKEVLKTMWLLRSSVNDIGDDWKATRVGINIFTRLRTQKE

O=C(O)CCCC[C@@H]1SC[C@@H]2NC(=O)N[C@@H]21 [free biotin]
Off rate constants, rate (avidin (AV) [1]; [12]): 5.623e-6
Off rate constants, ln k (avidin (AV) [1]; [12]): -12.1
Off rate constants, rate (avidin (AV) [1]; [13]): 6.31e-5
Off rate constants, ln k (avidin (AV) [1]; [13]): -9.67
Off rate constants, rate (avidin (AV) [1]; [14]): 0.0005623
Off rate constants, ln k (avidin (AV) [1]; [14]): -7.48

AV: avidin, homo-tetrameric biotin-binding protein, CAS 1405-69-2
dH (avidin (AV) [2]): -21.9 kcal/mol
dH (avidin (AV) [3]; [15]): -23.2
dG (avidin (AV) [3]; [16]): -20.7
dS (avidin (AV) [3]; [17]): -8.9
TdS (avidin (AV) [3]; [18]): 0 kcal/mol
dG (avidin (AV) [3]; [18]): -20.5 kcal/mol
dS (avidin (AV) [3]; [18]): 0
TdS (avidin (AV) [3]; [19]): -8.9 kcal/mol
dCp (avidin (AV) [3]; [19]): -237
dH (avidin (AV) [3]; [19]): -22.5 kcal/mol
dH (avidin (AV) [3]; ligand not given (biotin binding), ref swamy): -23.4 kcal/mol
TdS (avidin (AV) [3]; [20]): -2.65 kcal/mol
dG (avidin (AV) [3]; [20]): -20.75 kcal/mol
dH (avidin (AV) [3]; [20]): -20.3 kcal/mol
dS (avidin (AV) [3]; [20]): -8.9
dG+ (avidin (AV) [4]; Gibbs block): 4.7
dS+ (avidin (AV) [4]; entropy block): 32.8
dSǂ from off rate constants, from transition state teory (avidin (AV) [5]; AV): 31.8 cal/(mol·K)
TdS* (avidin (AV) [5]; AV, at 25C): 1.28E+04
dG* (avidin (AV) [5]; AV, at 25C, from off rates of rhiziavidin-helponainen-2007): 2.47E+04
dS (intercept less ln[RT/Noh), times 1.987) (avidin (AV) [5]; AV, from off rate constants): 43 cal/(mol·K)
slope intersept, ln A (avidin (AV) [5]; AV, from off rate constants of rhiziavidin-helponainen-2007): 45.4
sum (Enthalpy: Eon for BFl and dH) (avidin (AV) [5]; Enthalpy block): 37.6
sum (Gibbs: dG+ and dG) (avidin (AV) [5]; Gibbs block): 25.4
sum (entropy: dS+ and dS) (avidin (AV) [5]; entropy block): 41.7
Ea from off rate constants (avidin (AV) [5]; for AV, from off rates of rhiziavidin-helponainen-2007): 37.5 kcal/mol
Eaoff (avidin (AV) [5]; [21]): 35.6
dH + Ea (avidin (AV) [5]; [21]): 36.5
Off rate constants, ln k (avidin (AV) [1]; 43 C, ligand not given, ref rhiziavidin paper): -14.3
Off rate constants, ln k (avidin (AV) [1]; 55 C, ligand not given, ref rhiziavidin paper): -12.2
Off rate constants, ln k (avidin (AV) [1]; 66 C, ligand not given, ref rhiziavidin paper): -10
Off rate constants, ln k (avidin (AV) [1]; 68 C, ligand not given, ref rhiziavidin paper): -10.1
Eoff (ave) (avidin (AV) [1]; [22]): 37.6
Eaoff (avidin (AV) [1]; [23]): 35.6
thermal stability with bound B7 [6]: 117 °C and 112 °C
thermal stability without bound B7 [6]: 84 °C

SAV: streptavidin, homo-tetrameric biotin-binding protein, CAS 9013-20-1
Eoff (ave) (streptavidin (SAV) [7]; [22]): 29.4
Off rate constants, rate (streptavidin (SAV) [7]; 20 C): 1.862e-6
Off rate constants, rate (streptavidin (SAV) [7]; 30 C): 9.12e-6
Off rate constants, rate (streptavidin (SAV) [7]; 39 C): 4.467e-5
Ea from off rate constants (streptavidin (SAV) [7]; ref hyre): 30.4 kcal/mol and 30.4 ± 0.2hyre kcal/mol
Ea from off rate constants (streptavidin (SAV) [7]; ref klumb): 29.4 kcal/mol and 29.4 ± 0.4klumb kcal/mol
Ea from off rate constants (streptavidin (SAV) [7]; ref rhiziavidin-helponainen-2007): 29.0 ± 1.0 kcal/mol
Eaoff (streptavidin (SAV) [7]; [23]): 29
TdS* (streptavidin (SAV) [7]; [23]): 7.6 kcal/mol
dH* (streptavidin (SAV) [7]; [23]): 32 kcal/mol
dS* (streptavidin (SAV) [7]; [23]): 0.0257 kcal/mol
Eaoff (streptavidin (SAV) [7]; [24]): 29.4
TdS* (streptavidin (SAV) [7]; [24]): 5.6 kcal/mol
dH* (streptavidin (SAV) [7]; [24]): 30.4 kcal/mol
dS* (streptavidin (SAV) [7]; [24]): 0.0058 kcal/mol
Eaoff (streptavidin (SAV) [7]; [25]): 30.4
dG* (streptavidin (SAV) [7]; [25]): 24.6
dH* (streptavidin (SAV) [7]; [26]): 40 kcal/mol
ln(frac bound) (streptavidin (SAV) [7]; time 13 hr, ref klumb): -0.19
ln(frac bound) (streptavidin (SAV) [7]; time 22 hr, ref klumb): -0.36
ln(frac bound) (streptavidin (SAV) [7]; time 36 hr, ref klumb): -0.47
ln(frac bound) (streptavidin (SAV) [7]; time 47 hr, ref klumb): -0.62
ln(frac bound) (streptavidin (SAV) [7]; time 63 hr, ref klumb): -0.78
dH (streptavidin (SAV) [8]; [15]): -24.8
dG (streptavidin (SAV) [8]; [16]): -18.2
dS (streptavidin (SAV) [8]; [17]): -21
TdS (streptavidin (SAV) [8]; [27]): -6.4
dG (streptavidin (SAV) [8]; [27]): -18.1 kcal/mol
dH (streptavidin (SAV) [8]; [23]): -26.7 kcal/mol
TdS (streptavidin (SAV) [8]; [24]): -13.7
dCp (streptavidin (SAV) [8]; [24]): -345
dG (streptavidin (SAV) [8]; [24]): -18.3 kcal/mol
dH (streptavidin (SAV) [8]; [24]): -24.5 kcal/mol
dS (streptavidin (SAV) [8]; [24]): -45.9
dH (streptavidin (SAV) [8]; [25]): -24.9 kcal/mol
TdS (streptavidin (SAV) [8]; ligand not given (biotin binding), ref Stayton): -21.5
dH (streptavidin (SAV) [8]; [26]): -32 kcal/mol
dH (streptavidin (SAV) [8]; ligand not printed in the sheet (biotin binding), ref Green): -23 kcal/mol
sum (Enthalpy: Eon for BFl and dH) (streptavidin (SAV) [9]; Enthalpy block): 30.8
sum (Gibbs: dG+ and dG) (streptavidin (SAV) [9]; Gibbs block): 22.2
dSǂ from off rate constants, from transition state teory (streptavidin (SAV) [9]; SAV): 18.8
TdS* (streptavidin (SAV) [9]; SAV, at 25C): 8.94E+03
dG* (streptavidin (SAV) [9]; SAV, at 25C, line names rhiziavidin-helponainen-2007): 2.14E+04
slope intersept, ln A (streptavidin (SAV) [9]; SAV, from literature off rate constants): 38.85
dS (intercept less ln[RT/Noh), times 1.987) (streptavidin (SAV) [9]; SAV, from off rate constants): 30.0
sum (entropy: dS+ and dS) (streptavidin (SAV) [9]; entropy block): 27.7
dH + Ea (streptavidin (SAV) [9]; [21]): 31.8
dS* (streptavidin (SAV) [9]; [21]): 0.0195 kcal/mol
Eaoff (streptavidin (SAV) [9]; [28]): 29.6
TdS (streptavidin (SAV) [10]; [21]): -46.0
dH (streptavidin (SAV) [10]; [28]): -24.8 kcal/mol
dG+ (streptavidin (SAV) [11]; Gibbs block): 4
dS+ (streptavidin (SAV) [11]; entropy block): 6.7
thermal stability with bound B7 [6]: 112 °C and 117 °C
thermal stability without bound B7 [6]: 75 °C
